In experiment [1] the target is recombinant human calreticulin (amino acids 18 to 417, N-terminal His-tag) (human) (UniProt P27797).
In experiment [2] the target is bovine liver calreticulin (bovine) (UniProt P52193). The experiment in a line: SPR; bovine CRT or human recombinant S100A10 amine-coupled to CM5 chips (1000 to 1300 RU), BIACORE 3000; Glu-plasminogen (0-1 uM) or 0.5 uM bovine serum albumin flowed at 50 ul/min; 25 °C; HBS-ET (10 mM Hepes pH 7.4, 150 mM NaCl, 3 mM EDTA, 0.05% Tween-20); apparent KD from steady-state affinity model. (In SPR one partner is held on a chip, and binding of the other changes the refractive index at the surface.)
Sequence of UniProt P52193 (P52193 18-417): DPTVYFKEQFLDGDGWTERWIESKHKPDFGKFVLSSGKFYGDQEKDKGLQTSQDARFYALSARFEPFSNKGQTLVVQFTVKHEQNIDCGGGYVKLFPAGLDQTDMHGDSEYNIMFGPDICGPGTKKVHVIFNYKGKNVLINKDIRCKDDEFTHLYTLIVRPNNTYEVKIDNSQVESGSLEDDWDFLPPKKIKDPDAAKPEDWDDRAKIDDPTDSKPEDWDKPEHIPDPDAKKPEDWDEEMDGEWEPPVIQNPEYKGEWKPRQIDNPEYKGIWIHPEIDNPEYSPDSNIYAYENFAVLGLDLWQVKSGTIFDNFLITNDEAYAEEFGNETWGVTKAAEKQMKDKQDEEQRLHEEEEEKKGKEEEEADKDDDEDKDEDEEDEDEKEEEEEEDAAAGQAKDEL

Experiment [3] deals with human recombinant S100A10 (human) (UniProt P60903). Described as above.
Sequence of UniProt P60903 (P60903 whole entry): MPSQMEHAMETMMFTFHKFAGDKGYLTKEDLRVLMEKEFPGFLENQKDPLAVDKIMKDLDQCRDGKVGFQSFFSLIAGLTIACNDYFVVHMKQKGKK

pKd: −log10 of the molar value.

Sequence of UniProt P27797 (P27797 18-417): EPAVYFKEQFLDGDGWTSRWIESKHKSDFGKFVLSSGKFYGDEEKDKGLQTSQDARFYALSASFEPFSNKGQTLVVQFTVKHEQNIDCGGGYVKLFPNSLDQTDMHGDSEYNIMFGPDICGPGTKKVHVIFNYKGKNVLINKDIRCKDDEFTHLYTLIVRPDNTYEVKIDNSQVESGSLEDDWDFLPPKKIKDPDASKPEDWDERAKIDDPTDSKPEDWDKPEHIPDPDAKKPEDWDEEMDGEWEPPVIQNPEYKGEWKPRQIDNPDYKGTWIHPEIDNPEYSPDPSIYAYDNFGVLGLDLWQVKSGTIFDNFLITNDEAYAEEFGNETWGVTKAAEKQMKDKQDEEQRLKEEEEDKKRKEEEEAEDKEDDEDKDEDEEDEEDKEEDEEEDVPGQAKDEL

The term pKd denotes the negative decadic logarithm of the Kd, by convention in mol/L. With human Glu-plasminogen (natural protein), the inhibition by 10 mM ε-ACA of the stimulation of tPA-dependent plasminogen activation by 0.5 μM recombinant human CRT in experiment [1] was 80%. Besides, the pKd in experiment [2] was 5.72; in experiment [3], 6.30.

The values are drawn from article PMC10770727.
